Measured values reported in the supplement of paper PMC6379048.

How the values were obtained:
Assay in all cases: EC50 of free RNA motif oligo competing protein binding to immobilised probe
FIP1L1 = biological target: T1, FIP1L1 (UniProt Q6UN15)
T1 sequence: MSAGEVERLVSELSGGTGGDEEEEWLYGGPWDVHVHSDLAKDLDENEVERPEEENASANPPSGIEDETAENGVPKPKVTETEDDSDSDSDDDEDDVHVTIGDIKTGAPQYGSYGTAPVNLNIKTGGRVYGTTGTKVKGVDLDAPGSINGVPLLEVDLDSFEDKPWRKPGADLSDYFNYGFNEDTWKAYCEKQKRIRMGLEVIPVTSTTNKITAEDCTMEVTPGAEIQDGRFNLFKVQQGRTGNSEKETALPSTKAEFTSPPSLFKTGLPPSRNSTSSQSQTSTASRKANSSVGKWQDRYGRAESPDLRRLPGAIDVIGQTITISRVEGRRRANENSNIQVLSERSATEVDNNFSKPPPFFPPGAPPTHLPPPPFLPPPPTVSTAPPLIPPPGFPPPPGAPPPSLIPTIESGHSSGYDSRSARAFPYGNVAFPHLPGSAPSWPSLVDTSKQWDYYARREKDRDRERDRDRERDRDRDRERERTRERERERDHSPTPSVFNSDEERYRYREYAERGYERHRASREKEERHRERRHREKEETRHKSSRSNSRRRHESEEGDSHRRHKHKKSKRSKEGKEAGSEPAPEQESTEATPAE
How it was run: (§1)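 Over three biological replicates and two independent experiments, proteins captured on NHS-Sepharose beads carrying 5′-amino-C6 RNA oligos were quantified by label-free LC-MS/MS and normalised to the control. Capture lasted 30 min at 4°C and followed a 1 h pre-incubation at 4°C of HEK293-FT lysate (2.5 mg protein/well) with the same oligos in free form (0 nM to 30 μM). EC50 was taken from a four-parameter log-logistic fit, and Kd was EC50 corrected by a protein-dependent depletion factor.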

LSM7 = biological target: T2, LSM7 (UniProt Q9UK45)
T2 sequence: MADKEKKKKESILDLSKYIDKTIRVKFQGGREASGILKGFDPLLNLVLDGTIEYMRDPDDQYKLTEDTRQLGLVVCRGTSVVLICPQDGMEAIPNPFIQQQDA
How it was run: as §1

RBM17 = biological target: T3, RBM17 (UniProt Q96I25)
T3 sequence: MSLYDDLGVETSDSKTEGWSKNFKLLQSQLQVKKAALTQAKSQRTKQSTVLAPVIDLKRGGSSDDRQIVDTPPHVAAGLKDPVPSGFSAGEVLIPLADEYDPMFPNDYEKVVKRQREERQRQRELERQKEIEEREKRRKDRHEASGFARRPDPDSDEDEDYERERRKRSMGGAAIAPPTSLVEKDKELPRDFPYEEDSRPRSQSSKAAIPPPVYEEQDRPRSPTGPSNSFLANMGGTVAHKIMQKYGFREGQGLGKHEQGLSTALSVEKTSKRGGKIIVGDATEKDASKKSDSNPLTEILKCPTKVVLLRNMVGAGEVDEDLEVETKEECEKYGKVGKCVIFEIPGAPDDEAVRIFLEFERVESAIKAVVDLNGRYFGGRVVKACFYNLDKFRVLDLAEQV
How it was run: as §1

RBMS1 = biological target: T4, RBMS1 (UniProt P29558)
T4 sequence: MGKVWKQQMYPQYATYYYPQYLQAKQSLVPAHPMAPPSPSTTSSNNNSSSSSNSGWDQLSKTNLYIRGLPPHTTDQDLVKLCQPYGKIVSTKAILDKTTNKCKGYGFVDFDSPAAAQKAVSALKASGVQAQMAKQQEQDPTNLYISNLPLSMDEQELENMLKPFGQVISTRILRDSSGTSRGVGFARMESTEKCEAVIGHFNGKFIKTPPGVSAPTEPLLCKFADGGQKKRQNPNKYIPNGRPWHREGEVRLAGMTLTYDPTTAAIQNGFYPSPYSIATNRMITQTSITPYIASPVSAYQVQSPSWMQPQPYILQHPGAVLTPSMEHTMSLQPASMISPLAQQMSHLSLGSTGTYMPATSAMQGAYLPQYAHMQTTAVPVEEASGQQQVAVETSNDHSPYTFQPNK
How it was run: as §1

XRN1 = XRN1 (UniProt Q8IZH2)
How it was run: as §1

PABPC1 = PABPC1 (UniProt P11940)
How it was run: as §1

Chain of PABPC1 (P11940 whole entry): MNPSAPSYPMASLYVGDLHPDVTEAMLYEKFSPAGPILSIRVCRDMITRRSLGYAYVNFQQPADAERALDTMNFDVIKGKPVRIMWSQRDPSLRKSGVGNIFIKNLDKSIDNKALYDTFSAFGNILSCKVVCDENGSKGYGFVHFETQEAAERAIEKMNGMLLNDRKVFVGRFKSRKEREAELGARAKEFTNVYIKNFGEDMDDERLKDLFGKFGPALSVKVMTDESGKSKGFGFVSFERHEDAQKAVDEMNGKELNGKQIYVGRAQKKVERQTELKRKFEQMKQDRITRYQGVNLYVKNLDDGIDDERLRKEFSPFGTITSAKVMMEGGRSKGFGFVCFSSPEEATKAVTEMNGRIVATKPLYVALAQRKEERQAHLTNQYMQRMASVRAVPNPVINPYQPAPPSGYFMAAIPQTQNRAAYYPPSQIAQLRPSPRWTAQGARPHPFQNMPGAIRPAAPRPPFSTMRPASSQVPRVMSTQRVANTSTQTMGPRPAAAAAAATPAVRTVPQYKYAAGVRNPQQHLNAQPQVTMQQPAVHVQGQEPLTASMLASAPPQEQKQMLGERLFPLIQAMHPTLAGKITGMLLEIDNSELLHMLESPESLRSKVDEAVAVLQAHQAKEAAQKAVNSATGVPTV
Chain of XRN1 (Q8IZH2 whole entry): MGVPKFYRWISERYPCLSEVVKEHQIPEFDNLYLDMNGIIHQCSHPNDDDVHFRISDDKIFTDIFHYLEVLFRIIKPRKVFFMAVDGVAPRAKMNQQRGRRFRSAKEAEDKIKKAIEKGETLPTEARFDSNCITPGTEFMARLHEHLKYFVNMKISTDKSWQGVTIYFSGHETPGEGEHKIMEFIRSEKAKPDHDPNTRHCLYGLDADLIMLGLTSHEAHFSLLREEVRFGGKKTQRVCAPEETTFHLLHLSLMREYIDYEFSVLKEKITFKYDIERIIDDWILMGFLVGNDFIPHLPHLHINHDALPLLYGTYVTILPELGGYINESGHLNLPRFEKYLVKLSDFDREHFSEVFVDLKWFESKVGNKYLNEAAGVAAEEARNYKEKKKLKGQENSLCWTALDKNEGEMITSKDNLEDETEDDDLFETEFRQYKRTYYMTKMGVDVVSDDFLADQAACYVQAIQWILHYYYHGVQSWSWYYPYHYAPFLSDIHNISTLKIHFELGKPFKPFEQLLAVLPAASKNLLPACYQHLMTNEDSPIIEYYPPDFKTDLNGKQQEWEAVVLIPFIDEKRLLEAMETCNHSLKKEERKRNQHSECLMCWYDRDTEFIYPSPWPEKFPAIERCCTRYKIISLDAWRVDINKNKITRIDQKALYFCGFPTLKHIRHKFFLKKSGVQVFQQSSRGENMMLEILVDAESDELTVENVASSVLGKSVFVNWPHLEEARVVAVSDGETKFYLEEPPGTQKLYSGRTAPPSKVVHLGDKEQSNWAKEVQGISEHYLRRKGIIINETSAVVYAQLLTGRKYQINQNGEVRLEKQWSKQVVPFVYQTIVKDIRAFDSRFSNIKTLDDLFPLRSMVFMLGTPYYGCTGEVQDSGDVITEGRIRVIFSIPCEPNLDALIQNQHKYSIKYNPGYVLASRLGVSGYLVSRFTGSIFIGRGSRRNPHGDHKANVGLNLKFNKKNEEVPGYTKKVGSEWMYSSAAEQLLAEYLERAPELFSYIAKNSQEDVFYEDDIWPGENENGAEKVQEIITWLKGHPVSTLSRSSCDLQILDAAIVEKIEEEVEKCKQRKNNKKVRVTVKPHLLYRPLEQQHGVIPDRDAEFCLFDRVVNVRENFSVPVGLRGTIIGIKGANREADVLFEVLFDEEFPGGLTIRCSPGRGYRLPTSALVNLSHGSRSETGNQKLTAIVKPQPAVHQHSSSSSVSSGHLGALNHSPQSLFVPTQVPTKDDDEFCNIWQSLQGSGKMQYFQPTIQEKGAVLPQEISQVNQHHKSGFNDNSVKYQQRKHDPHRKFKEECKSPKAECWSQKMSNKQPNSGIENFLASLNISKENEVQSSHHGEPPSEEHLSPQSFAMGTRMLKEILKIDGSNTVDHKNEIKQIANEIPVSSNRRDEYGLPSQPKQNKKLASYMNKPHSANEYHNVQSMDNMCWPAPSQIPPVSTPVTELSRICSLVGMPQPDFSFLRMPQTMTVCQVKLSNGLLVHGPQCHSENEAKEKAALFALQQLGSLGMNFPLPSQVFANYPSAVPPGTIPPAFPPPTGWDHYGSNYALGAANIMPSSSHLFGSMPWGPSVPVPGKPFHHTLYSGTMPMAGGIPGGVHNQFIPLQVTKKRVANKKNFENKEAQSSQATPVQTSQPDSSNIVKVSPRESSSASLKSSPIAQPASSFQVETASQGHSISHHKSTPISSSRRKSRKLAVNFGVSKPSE

UAUUUAU
EC50 (FIP1L1): 1390 nM | EC50 (LSM7): 302 nM | EC50 (RBM17): 93.1 nM | EC50 (RBMS1): 458 nM | EC50 (XRN1): 196 nM

AAUAAA
EC50 (FIP1L1): 64.8 nM | EC50 (LSM7): 655 nM | EC50 (PABPC1): 10100 nM | EC50 (RBM17): 2490 nM | EC50 (RBMS1): 1570 nM | EC50 (XRN1): 440 nM

CUGUCCU
EC50 (PABPC1): 199 nM
